Assays:
HeLa Kyoto [1] = assay: solubility in G1/S (NP-40 vs SDS abundance) (log2 ratio); higher = more soluble; conditions: cell cycle stage: G1/S
HeLa Kyoto [2] = assay: thermal stability score vs G1/S (z-score of summed log2 fold changes over temperatures); higher = more thermally stable than in G1/S
HeLa Kyoto [3] = assay: solubility change mitosis vs G1/S (difference of NP-40 vs SDS log2 ratios) (log2 ratio difference); higher = more soluble in mitosis
HeLa Kyoto [4] = assay: melting temperature (median over replicates), in situ; higher = more thermally stable
[5] = cell cycle stage: early G1 (4.5 h after nocodazole release)
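For melting temperature (median over replicates), in situ in this document: HeLa Kyoto cells synchronized by double thymidine or nocodazole block, proteins quantified by TMT10plex mass spectrometry, three independent biological replicates.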
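For solubility change mitosis vs G1/S (difference of NP-40 vs SDS log2 ratios) in this document: synchronized HeLa Kyoto cells (double thymidine block for G1/S, nocodazole release for mitosis), protein amounts in NP-40 versus SDS lysates quantified by mass spectrometry, three biological replicates.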
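For solubility in G1/S (NP-40 vs SDS abundance) in this document: HeLa Kyoto cells arrested at G1/S by double thymidine block, proteins quantified by TMT10plex mass spectrometry in mild NP-40 versus SDS extracts, three biological replicates.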
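For thermal stability score vs G1/S (z-score of summed log2 fold changes over temperatures) in this document: synchronized HeLa Kyoto cells, proteins quantified by TMT10plex mass spectrometry, three biological replicates, mitosis taken 0.5 h after nocodazole release, G1/S directly after double thymidine block.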

Sequence	solubility in G1/S (log2) (HeLa Kyoto [1])	thermal stability score (HeLa Kyoto [2]; [5])	thermal stability score (HeLa Kyoto [2]; cell cycle stage: mitosis)	solubility change mitosis (log2) (HeLa Kyoto [3])	melting temperature (HeLa Kyoto [4]; cell cycle stage: G1/S) [°C]	melting temperature (HeLa Kyoto [4]; cell cycle stage: mitosis) [°C]
MAAERGAGQQQSQEMMEVDRRVESEESGDEEGKKHSSGIVADLSEQSLKDGEERGEEDPEEEHELPVDMETINLDRDAEDVDLNHYRIGKIEGFEVLKKVKTLCLRQNLIKCIENLEELQSLRELDLYDNQIKKIENLEALTELEILDISFNLLRNIEGVDKLTRLKKLFLVNNKISKIENLSNLHQLQMLELGSNRIRAIENIDTLTNLESLFLGKNKITKLQNLDALTNLTVLSMQSNRLTKIEGLQNLVNLRELYLSHNGIEVIEGLENNNKLTMLDIASNRIKKIENISHLTELQEFWMNDNLLESWSDLDELKGARSLETVYLERNPLQKDPQYRRKVMLALPSVRQIDATFVRF [PPP1R7]	0.332	-1.16	-2.37	0.033	52.7	52.8
MSPARRCRGMRAAVAASVGLSEGPAGSRSGRLFRPPSPAPAAPGARLLRLPGSGAVQAASPERAGWTEALRAAVAELRAGAVVAVPTDTLYGLACAASCSAALRAVYRLKGRSEAKPLAVCLGRVADVYRYCRVRVPEGLLKDLLPGPVTLVMERSEELNKDLNPFTPLVGIRIPDHAFMQDLAQMFEGPLALTSANLSSQASSLNVEEFQDLWPQLSLVIDGGQIGDGQSPECRLGSTVVDLSVPGKFGIIRPGCALESTTAILQQKYGLLPSHASYL [YRDC]	0.378	0.325	0.668	-0.0312	52.3	52.7
MGRRALLLLLLSFLAPWATIALRPALRALGSLHLPTNPTSLPAVAKNYSVLYFQQKVDHFGFNTVKTFNQRYLVADKYWKKNGGSILFYTGNEGDIIWFCNNTGFMWDVAEELKAMLVFAEHRYYGESLPFGDNSFKDSRHLNFLTSEQALADFAELIKHLKRTIPGAENQPVIAIGGSYGGMLAAWFRMKYPHMVVGALAASAPIWQFEDLVPCGVFMKIVTTDFRKSGPHCSESIHRSWDAINRLSNTGSGLQWLTGALHLCSPLTSQDIQHLKDWISETWVNLAMVDYPYASNFLQPLPAWPIKVVCQYLKNPNVSDSLLLQNIFQALNVYYNYSGQVKCLNISETATSSLGTLGWSYQACTEVVMPFCTNGVDDMFEPHSWNLKELSDDCFQQWGVRPRPSWITTMYGGKNISSHTNIVFSNGELDPWSGGGVTKDITDTLVAVTISEGAHHLDLRTKNALDPMSVLLARSLEVRHMKNWIRDFYDSAGKQH [PRCP]	0.0413	-0.942	-2.23	-0.246	58.5	54.1
MGSRASTLLRDEELEEIKKETGFSHSQITRLYSRFTSLDKGENGTLSREDFQRIPELAINPLGDRIINAFFPEGEDQVNFRGFMRTLAHFRPIEDNEKSKDVNGPEPLNSRSNKLHFAFRLYDLDKDEKISRDELLQVLRMMVGVNISDEQLGSIADRTIQEADQDGDSAISFTEFVKVLEKVDVEQKMSIRFLH [CHP1]	0.256	-0.997	0.839	-0.016	51.8	52.6
MSELEQLRQEAEQLRNQIQDARKACNDATLVQITSNMDSVGRIQMRTRRTLRGHLAKIYAMHWGYDSRLLVSASQDGKLIIWDSYTTNKMHAIPLRSSWVMTCAYAPSGNYVACGGLDNICSIYNLKTREGNVRVSRELPGHTGYLSCCRFLDDSQIVTSSGDTTCALWDIETAQQTTTFTGHSGDVMSLSLSPDMRTFVSGACDASSKLWDIRDGMCRQSFTGHVSDINAVSFFPNGYAFATGSDDATCRLFDLRADQELLLYSHDNIICGITSVAFSKSGRLLLAGYDDFNCNVWDTLKGDRAGVLAGHDNRVSCLGVTDDGMAVATGSWDSFLRIWN [GNB4]	-0.287	-1.5	-0.567	-0.13	55.6	56.7
MGQNDLMGTAEDFADQFLRVTKQYLPHVARLCLISTFLEDGIRMWFQWSEQRDYIDTTWNCGYLLASSFVFLNLLGQLTGCVLVLSRNFVQYACFGLFGIIALQTIAYSILWDLKFLMRNLALGGGLLLLLAESRSEGKSMFAGVPTMRESSPKQYMQLGGRVLLVLMFMTLLHFDASFFSIVQNIVGTALMILVAIGFKTKLAALTLVVWLFAINVYFNAFWTIPVYKPMHDFLKYDFFQTMSVIGGLLLVVALGPGGVSMDEKKKEW [SURF4]	0.185	-0.529	-2.05	0.00821	57.4	56.2
